These results are taken from paper PMC6513997.

This test has as its target native PRC2 purified from HeLa cells expressing FLAG-tagged EZH2 (not stated | human (endogenous in HeLa)) (UniProt Q15910).

Chain of native PRC2 purified from HeLa cells expressing FLAG-tagged EZH2 (not stated | human (endogenous in HeLa)) (Q15910 whole entry, chain 1 of 4): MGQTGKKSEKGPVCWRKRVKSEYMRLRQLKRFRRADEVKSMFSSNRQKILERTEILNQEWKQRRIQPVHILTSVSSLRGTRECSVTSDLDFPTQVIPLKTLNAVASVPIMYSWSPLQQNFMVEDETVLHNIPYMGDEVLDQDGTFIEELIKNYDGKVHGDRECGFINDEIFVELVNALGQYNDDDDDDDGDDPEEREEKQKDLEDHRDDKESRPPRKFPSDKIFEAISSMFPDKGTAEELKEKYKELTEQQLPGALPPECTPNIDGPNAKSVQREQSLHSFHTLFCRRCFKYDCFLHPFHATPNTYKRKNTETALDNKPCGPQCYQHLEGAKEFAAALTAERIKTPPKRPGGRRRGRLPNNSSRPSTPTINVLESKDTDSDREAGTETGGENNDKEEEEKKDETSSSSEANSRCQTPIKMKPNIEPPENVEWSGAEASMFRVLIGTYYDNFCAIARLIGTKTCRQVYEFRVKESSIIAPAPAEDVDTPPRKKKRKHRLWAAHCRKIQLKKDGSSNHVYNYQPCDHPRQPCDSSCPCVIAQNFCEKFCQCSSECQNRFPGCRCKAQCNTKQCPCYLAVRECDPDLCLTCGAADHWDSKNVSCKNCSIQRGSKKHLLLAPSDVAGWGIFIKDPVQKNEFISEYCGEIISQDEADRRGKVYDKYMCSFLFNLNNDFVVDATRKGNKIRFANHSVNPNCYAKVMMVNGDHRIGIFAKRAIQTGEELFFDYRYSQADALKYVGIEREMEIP
Chain of native PRC2 purified from HeLa cells expressing FLAG-tagged EZH2 (not stated | human (endogenous in HeLa)) (Q15022 whole entry, chain 2 of 4, further chain): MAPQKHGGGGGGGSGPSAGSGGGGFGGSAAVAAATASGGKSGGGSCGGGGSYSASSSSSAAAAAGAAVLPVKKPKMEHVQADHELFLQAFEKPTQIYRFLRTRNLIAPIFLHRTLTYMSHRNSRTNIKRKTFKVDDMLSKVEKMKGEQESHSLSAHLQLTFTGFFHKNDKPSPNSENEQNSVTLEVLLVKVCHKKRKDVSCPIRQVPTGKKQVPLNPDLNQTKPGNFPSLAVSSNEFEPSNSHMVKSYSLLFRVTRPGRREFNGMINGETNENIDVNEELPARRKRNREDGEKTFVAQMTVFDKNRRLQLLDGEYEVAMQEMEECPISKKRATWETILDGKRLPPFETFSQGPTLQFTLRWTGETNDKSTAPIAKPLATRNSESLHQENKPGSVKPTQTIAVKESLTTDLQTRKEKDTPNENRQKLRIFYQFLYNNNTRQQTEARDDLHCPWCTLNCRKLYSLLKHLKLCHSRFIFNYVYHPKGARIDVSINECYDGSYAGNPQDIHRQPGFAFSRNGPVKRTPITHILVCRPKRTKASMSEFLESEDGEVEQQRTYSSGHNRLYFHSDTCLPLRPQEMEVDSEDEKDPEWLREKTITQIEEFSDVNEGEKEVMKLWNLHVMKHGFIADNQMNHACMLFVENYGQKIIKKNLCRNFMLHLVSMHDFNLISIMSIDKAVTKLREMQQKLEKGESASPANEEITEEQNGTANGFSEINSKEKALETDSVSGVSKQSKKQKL
Chain of native PRC2 purified from HeLa cells expressing FLAG-tagged EZH2 (not stated | human (endogenous in HeLa)) (O75530 2-441, chain 3 of 4, further chain): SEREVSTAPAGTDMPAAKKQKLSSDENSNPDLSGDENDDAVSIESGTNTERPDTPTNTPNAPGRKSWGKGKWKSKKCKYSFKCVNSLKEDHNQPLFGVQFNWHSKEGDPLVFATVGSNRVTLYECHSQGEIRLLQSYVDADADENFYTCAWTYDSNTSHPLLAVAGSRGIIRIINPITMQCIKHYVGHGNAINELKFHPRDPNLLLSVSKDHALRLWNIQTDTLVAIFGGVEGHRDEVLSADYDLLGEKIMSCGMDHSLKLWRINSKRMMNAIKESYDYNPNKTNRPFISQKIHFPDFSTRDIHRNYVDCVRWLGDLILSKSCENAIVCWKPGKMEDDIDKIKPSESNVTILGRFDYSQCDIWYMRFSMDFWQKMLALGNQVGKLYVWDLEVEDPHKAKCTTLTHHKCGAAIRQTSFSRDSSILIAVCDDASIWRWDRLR
Chain of native PRC2 purified from HeLa cells expressing FLAG-tagged EZH2 (not stated | human (endogenous in HeLa)) (Q09028 2-425, chain 4 of 4, further chain): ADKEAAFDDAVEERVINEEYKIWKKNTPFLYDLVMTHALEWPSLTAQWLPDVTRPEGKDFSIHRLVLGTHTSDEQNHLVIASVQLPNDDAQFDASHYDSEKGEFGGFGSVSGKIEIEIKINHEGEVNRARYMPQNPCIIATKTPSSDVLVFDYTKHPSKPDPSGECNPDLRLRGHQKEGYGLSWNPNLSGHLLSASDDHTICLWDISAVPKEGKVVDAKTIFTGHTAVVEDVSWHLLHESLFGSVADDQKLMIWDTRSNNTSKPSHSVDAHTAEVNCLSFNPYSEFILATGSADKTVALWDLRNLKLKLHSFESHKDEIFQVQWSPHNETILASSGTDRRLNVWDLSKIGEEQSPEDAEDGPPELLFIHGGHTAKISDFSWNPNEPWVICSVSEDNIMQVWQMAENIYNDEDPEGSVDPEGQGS
Chain of full length recombinant EZHIP WT, 6x-His-tagged (natural protein) (Q86X51 whole entry): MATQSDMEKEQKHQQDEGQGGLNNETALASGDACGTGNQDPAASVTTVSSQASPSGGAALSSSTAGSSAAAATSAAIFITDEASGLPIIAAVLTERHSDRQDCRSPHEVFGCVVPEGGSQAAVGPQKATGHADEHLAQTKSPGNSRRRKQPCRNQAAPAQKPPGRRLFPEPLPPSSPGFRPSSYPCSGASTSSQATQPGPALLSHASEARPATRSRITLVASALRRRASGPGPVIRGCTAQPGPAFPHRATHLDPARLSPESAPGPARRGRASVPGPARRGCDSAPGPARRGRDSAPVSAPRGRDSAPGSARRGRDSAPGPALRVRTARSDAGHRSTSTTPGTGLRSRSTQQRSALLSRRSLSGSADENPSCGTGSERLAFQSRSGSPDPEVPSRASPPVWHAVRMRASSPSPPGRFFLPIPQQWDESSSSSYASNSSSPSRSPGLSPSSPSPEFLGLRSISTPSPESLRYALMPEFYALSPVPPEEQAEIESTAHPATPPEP

Consider “full length recombinant EZHIP WT, 6x-His-tagged (natural protein)”, for which the IC50 of PRC2-catalyzed methylation of oligonucleosomes, in vitro methyltransferase assay, EZHIP titrated amounted to 50 nM.
